Assay results taken from US20180280496A1.
“And” between values parts separate entries of the source, which are not always exact repeats. Identical values can stand only once. Like-named read-outs stand apart in the source and are kept apart here.

Assays:
[1] = target: A*11:01 (human), P04439; test: ProImmune REVEAL MHC class I-peptide binding assay
[2] = target: B*07:02 (human), P01889; test: ProImmune REVEAL MHC class I-peptide binding assay
[3] = target: A*02:01 (human), P04439; test: ProImmune REVEAL MHC class I-peptide binding assay, A*02:01
[4] = target: A*02:01 (human), P04439; details: chains peptide; modification not given
[5] = target: A*24:02 (human), P04439; test: ProImmune REVEAL MHC class I-peptide binding assay
[6] = target: A*24:02 (human), P04439; details: modification not given
[7] = target: T1, H-2Kb (mouse), P01901; test: ProImmune REVEAL MHC class I-peptide binding assay
T1 chain: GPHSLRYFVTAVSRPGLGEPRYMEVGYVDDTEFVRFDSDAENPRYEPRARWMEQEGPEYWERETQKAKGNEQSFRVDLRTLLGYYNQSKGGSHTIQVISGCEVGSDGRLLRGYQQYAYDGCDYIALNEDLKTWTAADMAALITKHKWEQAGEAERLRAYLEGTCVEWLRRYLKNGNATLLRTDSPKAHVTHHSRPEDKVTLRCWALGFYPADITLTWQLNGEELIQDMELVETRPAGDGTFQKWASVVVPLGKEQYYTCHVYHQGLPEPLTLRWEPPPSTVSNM

[8] = target: A*24:02 (human), P04439; details: modification not given; remark: listed apart in the source
[9] = target: A*11:01 (human), P04439; details: modification not given
[10] = target: A*03:01 (human), P04439; details: modification not given
[11] = target: A*24:02 (human), P04439; details: modification not given; remark: listed apart in the source
[12] = target: A*11:01 (human), P04439; details: modification not given; remark: listed apart in the source
[13] = target: B*27:05 (human), P01889; test: ProImmune REVEAL MHC class I-peptide binding assay
[14] = target: HLA-B*15:01; details: chains peptide; modification not given
[15] = target: HLA-B*40:01; details: chains peptide; modification not given
[16] = target: HLA-A*32:01; details: chains peptide; modification not given
[17] = target: A*11:01 (human), P04439; details: modification not given; remark: listed apart in the source
[18] = target: A*02:01 (human), P04439; test: ProImmune REVEAL MHC class I-peptide binding assay
[19] = target: A*02:01 (human), P04439; details: chains peptide; modification not given; remark: listed apart in the source
[20] = target: A*24:02 (human), P04439; details: modification not given; remark: listed apart in the source
[21] = target: A*11:01 (human), P04439; details: modification not given; remark: listed apart in the source
[22] = target: A*11:01 (human), P04439; details: modification not given; remark: listed apart in the source

ISGDDCVVK (modifications not checked)
REVEAL score at 0 h [1]: 88.7

IPERSWNSG (modifications not checked)
REVEAL score at 0 h [2]: 45.2

RQWFFDLPL
REVEAL Score [3]: 80.5 | IC50 [4]: 12 nM and 39 nM

VGTYGLNTF (modifications not checked)
REVEAL score at 0 h [5]: 96

SYSMCTGKF [SEQ ID NO: 308 serotype 2]
IC50 [6]: 115 nM

HATFTMRLL (modifications not checked)
REVEAL score at 0 h [7]: 69.5

QQRVFKEKV (modifications not checked)
REVEAL score at 0 h [7]: 63.4

PERVILAGP (modifications not checked)
REVEAL score at 0 h [2]: 56.1

WTEAKMLLD (modifications not checked)
REVEAL score at 0 h [5]: 94.7

SYVMCTGSF [SEQ ID NO: 308 serotype 1]
IC50 [8]: 104 nM

ALTLHWFRK [SEQ ID NO: 311 serotype 4]
IC50 [9]: 47 nM | IC50 [10]: 34 nM

SYAMCLNTF [SEQ ID NO: 308 serotype 3]
IC50 [11]: 540 nM

GTYGLNTFT (modifications not checked)
REVEAL score at 0 h [1]: 63.6

ATFTMRLLS (modifications not checked)
REVEAL score at 0 h [1]: 58.5 | REVEAL score at 0 h [7]: 55.6

VTFKNPHAK [SEQ ID NO: 309 serotype 2]
IC50 [12]: 17 nM

RRGDLPVWL (modifications not checked)
REVEAL score at 0 h [13]: 145

YGLNTFTNM (modifications not checked)
REVEAL score at 0 h [7]: 75.4

RQWFFDLPL [SEQ ID NO: 310 serotype 3]
IC50 [14]: 80 nM | IC50 [15]: 51 nM | IC50 [16]: 7 nM

VTFKTAHAK [SEQ ID NO: 309 serotype 1]
IC50 [17]: 16 nM

TALTGATEI (modifications not checked)
REVEAL Score [3]: 0.9

LMYFHRRDL (modifications not checked)
REVEAL score at 0 h [18]: 97.8 | REVEAL score at 0 h [2]: 120 | REVEAL score at 0 h [7]: 54.9

GEAAAIFMT (modifications not checked)
REVEAL score at 0 h [18]: 74.3 | REVEAL score at 0 h [1]: 50.3 | REVEAL score at 0 h [5]: 58.9

LSRNSTHEM (modifications not checked)
REVEAL score at 0 h [2]: 124 | REVEAL score at 0 h [7]: 51.1

SRNSTHEMY (modifications not checked)
REVEAL score at 0 h [2]: 52

KLTYQNKVV (modifications not checked)
REVEAL score at 0 h [18]: 92.3

MGEAAAIFM (modifications not checked)
REVEAL score at 0 h [18]: 50.6

LMCHATFTM (modifications not checked)
REVEAL score at 0 h [18]: 72.9 | REVEAL score at 0 h [5]: 99.5 | REVEAL score at 0 h [13]: 98.2 | REVEAL score at 0 h [7]: 59

FKLTYQNKV (modifications not checked)
REVEAL score at 0 h [13]: 53.7

ARGYISTRV (modifications not checked)
REVEAL score at 0 h [13]: 125

HWTEAKMLL (modifications not checked)
REVEAL score at 0 h [5]: 103

VVAAEMEEA (modifications not checked)
REVEAL score at 0 h [18]: 92.2

YFHRRDLRL (modifications not checked)
REVEAL score at 0 h [5]: 87.5

KQWFLDLPL
REVEAL Score [3]: 86 | IC50 [19]: 11 nM

TVWFVPSIK (modifications not checked)
REVEAL score at 0 h [1]: 92.2

MWHVTRGAV (modifications not checked)
REVEAL score at 0 h [18]: 62.7

AISGDDCVV (modifications not checked)
REVEAL score at 0 h [18]: 91.1

FKPGTSGSP (modifications not checked)
REVEAL score at 0 h [2]: 50.4 | REVEAL score at 0 h [7]: 45.7

SYTMCSGKF [SEQ ID NO: 308 serotype 4]
IC50 [20]: 222 nM

IVDLMCHAT (modifications not checked)
REVEAL score at 0 h [18]: 62.7

CHATFTMRL (modifications not checked)
REVEAL score at 0 h [5]: 75.9 | REVEAL score at 0 h [7]: 60.3

LMRRGDLPV (modifications not checked)
REVEAL score at 0 h [18]: 82.3 | REVEAL score at 0 h [2]: 179

GLYGNGVVT (modifications not checked)
REVEAL score at 0 h [18]: 87.7

PLSRNSTHE (modifications not checked)
REVEAL score at 0 h [2]: 65

VTFKNAHAK [SEQ ID NO: 309 serotype 3]
IC50 [21]: 17 nM

VTFKVPHAK [SEQ ID NO: 309 serotype 4]
IC50 [22]: 14 nM

LAPTRVVAA (modifications not checked)
REVEAL score at 0 h [7]: 102
